Experimental data as given in PMC11061198, “Polyphosphate and tyrosine phosphorylation in the N-terminal domain of the human mitochondrial Lon protease disrupts its functions” (Scientific Reports, 2024).

Biological target: the molecule itself
Assay: cryo-EM structure; ADP-bound hLon variants, 1.3 mg/ml, single-particle cryo-EM (cryoSPARC); homo-hexamer

B1: human Lon protease Y394E phosphorylation-mimicking mutant (enzyme, UniProt P36776 68-959, looked up)
chain: FWEASSRGGGAFSGGEDASEGGAEEGAGGAGGSAGAGEGPVITALTPMTIPDVFPHLPLIAITRNPVFPRFIKIIEVKNKKLVELLRRKVRLAQPYVGVFLKRDDSNESDVVESLDEIYHTGTFAQIHEMQDLGDKLRMIVMGHRRVHISRQLEVEPEEPEAENKHKPRRKSKRGKKEAEDELSARHPAELAMEPTPELPAEVLMVEVENVVHEDFQVTEEVKALTAEIVKTIRDIIALNPLYRESVLQMMQAGQRVVDNPIYLSDMGAALTGAESHELQDVLEETNIPKRLYKALSLLKKEFELSKLQQRLGREVEEKIKQTHRKELLQEQLKIIKKELGLEKDDKDAIEEKFRERLKELVVPKHVMDVVDEELSKLGLLDNHSSEFNVTRNYLDWLTSIPWGKYSNENLDLARAQAVLEEDHYGMEDVKKRILEFIAVSQLRGSTQGKILCFYGPPGVGKTSIARSIARALNREYFRFSVGGMTDVAEIKGHRRTYVGAMPGKIIQCLKKTKTENPLILIDEVDKIGRGYQGDPSSALLELLDPEQNANFLDHYLDVPVDLSKVLFICTANVTDTIPEPLRDRMEMINVSGYVAQEKLAIAERYLVPQARALCGLDESKAKLSSDVLTLLIKQYCRESGVRNLQKQVEKVLRKSAYKIVSGEAESVEVTPENLQDFVGKPVFTVERMYDVTPPGVVMGLAWTAMGGSTLFVETSLRRPQDKDAKGDKDGSLEVTGQLGEVMKESARIAYTFARAFLMQHAPANDYLVTSHIHLHVPEGATPKDGPSAGCTIVTALLSLAMGRPVRQNLAMTGEVSLTGKILPVGGIKEKTIAAKRAGVTCIVLPAENKKDFYDLAAFITEGLEVHFVEHYREIFDIAFPDEQAEALAVER
notes: human mitochondrial Lon protease (LONP1) lacking the N-terminal MTS, with Y394E; also called hLon Y394E; source: E. coli Rosetta 2 (DE3) or E. coli C321 (DE3), purified (NiNTA agarose, Superose 6 SEC)
  stoichiometry N: 6
